Residue numbers refer to the chain shown, from its start. Names and notes keep the numbering of the source. Where two headings read alike, the source gives them in different places. Each block holds one molecule with its values, some of them ahead of it.
Key:
[1] = target: human β-cardiac short S1 (sS1) with a C-terminal GFP, wild type (human) (UniProt P12883); experiment: MST
actin = experiment: MST
[2] = target: heavy chain (HC) of the 2-hep HMM construct of human β-cardiac myosin; experiment: stoichiometry of the purified complex
[3] = target: full-length recombinant human cardiac MyBP-C, nonphosphorylated (human, UniProt Q14896 1-1274); experiment: MST
Sequence of full-length recombinant human cardiac MyBP-C, nonphosphorylated (Q14896 whole entry): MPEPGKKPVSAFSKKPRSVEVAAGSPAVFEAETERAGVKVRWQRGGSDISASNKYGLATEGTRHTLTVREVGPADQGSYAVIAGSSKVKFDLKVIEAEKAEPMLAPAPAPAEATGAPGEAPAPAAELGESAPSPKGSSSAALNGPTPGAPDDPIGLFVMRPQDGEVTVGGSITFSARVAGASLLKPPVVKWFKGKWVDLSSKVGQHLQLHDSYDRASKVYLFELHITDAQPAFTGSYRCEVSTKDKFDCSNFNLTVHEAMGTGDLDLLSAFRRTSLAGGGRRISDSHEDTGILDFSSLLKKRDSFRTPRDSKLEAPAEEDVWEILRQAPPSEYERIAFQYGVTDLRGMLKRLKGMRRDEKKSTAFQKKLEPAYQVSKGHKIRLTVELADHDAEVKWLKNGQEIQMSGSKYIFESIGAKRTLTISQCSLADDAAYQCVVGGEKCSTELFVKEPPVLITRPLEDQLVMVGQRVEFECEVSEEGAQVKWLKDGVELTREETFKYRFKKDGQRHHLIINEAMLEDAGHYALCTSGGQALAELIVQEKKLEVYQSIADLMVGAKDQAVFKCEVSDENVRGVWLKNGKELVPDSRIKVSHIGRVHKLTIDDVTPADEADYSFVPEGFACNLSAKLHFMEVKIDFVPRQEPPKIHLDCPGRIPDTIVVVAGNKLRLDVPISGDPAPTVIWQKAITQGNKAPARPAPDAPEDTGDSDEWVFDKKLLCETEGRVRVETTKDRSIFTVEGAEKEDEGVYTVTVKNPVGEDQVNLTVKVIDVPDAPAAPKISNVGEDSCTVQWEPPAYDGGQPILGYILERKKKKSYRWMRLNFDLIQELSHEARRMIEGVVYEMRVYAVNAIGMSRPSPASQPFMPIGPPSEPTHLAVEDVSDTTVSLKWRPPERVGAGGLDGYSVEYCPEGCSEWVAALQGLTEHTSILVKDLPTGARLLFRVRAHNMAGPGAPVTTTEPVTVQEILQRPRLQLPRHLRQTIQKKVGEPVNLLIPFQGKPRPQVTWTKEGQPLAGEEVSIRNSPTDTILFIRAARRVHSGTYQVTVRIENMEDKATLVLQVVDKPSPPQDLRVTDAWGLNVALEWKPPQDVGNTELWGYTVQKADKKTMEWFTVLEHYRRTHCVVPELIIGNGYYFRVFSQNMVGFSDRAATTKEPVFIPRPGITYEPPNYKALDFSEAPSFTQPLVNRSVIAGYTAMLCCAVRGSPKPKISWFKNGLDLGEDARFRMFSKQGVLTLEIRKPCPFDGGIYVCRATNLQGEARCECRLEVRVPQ

[4] = target: T1, human β-cardiac short S1 (sS1) with a C-terminal GFP, wild type (human, UniProt P12883 1-808); experiment: MST
[5] = target: T1, human β-cardiac short S1 (sS1) with a …; experiment: MST; remark: listed apart in the source
[6] = target: R453C human β-cardiac sS1 with a C-terminal GFP (human, UniProt P12883 1-808, R453C); experiment: MST
[7] = target: R249Q human β-cardiac sS1 with a C-terminal GFP (human, UniProt P12883 1-808, R249Q); experiment: MST
[8] = target: R403Q human β-cardiac sS1 with a C-terminal GFP (human, UniProt P12883 1-808, R403Q); experiment: MST
[9] = target: MyBP-C (construct and phosphorylation state not told for these experiments) (human, UniProt Q14896 1-1274); experiment: MST
Sequence of MyBP-C (construct and phosphorylation state not told for these experiments) (Q14896 whole entry): as above

Molecule: actin (natural protein)
- Kd [1]: 0.25 µM

Molecule: human cardiac myosin essential light chain (ELC) (from UniProt P08590 1-195) (natural protein)
- stoichiometry N [2]: 1

B2: human cardiac myosin regulatory light chain (RLC) (natural protein)
chain: MAPKKAKKRAGGANSNVFSMFEQTQIQEFKEAFTIMDQNRDGFIDKNDLRDTFAALGRVNVKNEEIDEMIKEAPGPINFTVFLTMFGEKLKGADPEETILNAFKVFDPEGKGVLKADYVREMLTTQAERFSKEEVDQMFAAFPPDVTGNLDYKNLVHIITHGEEKD
- stoichiometry N [2]: 1

B3: proximal part of human cardiac myosin subfragment 2 (proximal S2), wild type (domain or fragment, UniProt P12883 841-966, looked up)
chain: KSAEREKEMASMKEEFTRLKEALEKSEARRKELEEKMVSLLQEKNDLQLQVQAEQDNLADAEERCDQLIKNKIQLEAKVKEMNERLEDEEEMNAELTAKKRKLEDECSELKRDIDDLELTLAKVEK
- Kd [4]: 4 ± 1 µM
- Kd [5]: 46 ± 7 µM
- Kd [6]: > 90 µM
- Kd [7]: > 300 µM
- Kd [8]: 54 ± 4 µM

Results, then the molecule that gave them:

- Kd (actin): 5 µM
Molecule: MyBP-C (construct and phosphorylation state not told for these experiments) (from UniProt Q14896 1-1274) (natural protein)

- Kd [3]: 17 ± 2 µM
B1: human β-cardiac short S1 (sS1) labelled with Cy5 on cysteine residues (domain or fragment, UniProt P12883 1-808, looked up)
chain: MGDSEMAVFGAAAPYLRKSEKERLEAQTRPFDLKKDVFVPDDKQEFVKAKIVSREGGKVTAETEYGKTVTVKEDQVMQQNPPKFDKIEDMAMLTFLHEPAVLYNLKDRYGSWMIYTYSGLFCVTVNPYKWLPVYTPEVVAAYRGKKRSEAPPHIFSISDNAYQYMLTDRENQSILITGESGAGKTVNTKRVIQYFAVIAAIGDRSKKDQSPGKGTLEDQIIQANPALEAFGNAKTVRNDNSSRFGKFIRIHFGATGKLASADIETYLLEKSRVIFQLKAERDYHIFYQILSNKKPELLDMLLITNNPYDYAFISQGETTVASIDDAEELMATDNAFDVLGFTSEEKNSMYKLTGAIMHFGNMKFKLKQREEQAEPDGTEEADKSAYLMGLNSADLLKGLCHPRVKVGNEYVTKGQNVQQVIYATGALAKAVYERMFNWMVTRINATLETKQPRQYFIGVLDIAGFEIFDFNSFEQLCINFTNEKLQQFFNHHMFVLEQEEYKKEGIEWTFIDFGMDLQACIDLIEKPMGIMSILEEECMFPKATDMTFKAKLFDNHLGKSANFQKPRNIKGKPEAHFSLIHYAGIVDYNIIGWLQKNKDPLNETVVGLYQKSSLKLLSTLFANYAGADAPIEKGKGKAKKGSSFQTVSALHRENLNKLMTNLRSTHPHFVRCIIPNETKSPGVMDNPLVMHQLRCNGVLEGIRICRKGFPNRILYGDFRQRYRILNPAAIPEGQFIDSRKGAEKLLSSLDIDHNQYKFGHTKVFFKAGLLGLLEEMRDERLSRIITRIQAQSRGVLARMEYKKLLERR
modifications: Cy5-labeled cysteine residues

- Kd [9]: ~7 µM
B4: proximal S2 of human cardiac myosin labelled with Cy5 (domain or fragment, UniProt P12883 841-966, looked up)
chain: B3 chain
modifications: Cy5 (site not stated)

- Kd [5]: 59 ± 2 µM
B5: R870H mutant proximal S2 of human cardiac myosin (domain or fragment, UniProt P12883 841-966, looked up)
chain: B3 chain with R30H
